From patent publication US20230372518A1, “ANTIMITOTIC TETRAPEPTIDE-ANTIBODY CONJUGATES AND METHODS OF USING SAME” (Angiex, Inc., priority 2020, published 2023)

Assays:
[1] = treatment with CA4P; cited from earlier work
[2] = biological target: T1, Transmembrane-4 L six family member-1 (TM4SF1) (human, UniProt P30408 1-202, limits assumed); assay: antibody screen (method not described in this filing)
T1 construct: also called hTM4SF1; human TM4SF1
T1 sequence: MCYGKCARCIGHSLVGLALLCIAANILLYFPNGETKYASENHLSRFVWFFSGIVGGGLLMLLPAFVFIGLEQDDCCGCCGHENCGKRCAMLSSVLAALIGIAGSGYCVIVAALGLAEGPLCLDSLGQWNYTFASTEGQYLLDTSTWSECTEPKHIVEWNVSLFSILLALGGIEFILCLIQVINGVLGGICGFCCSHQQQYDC

Molecule: COc1ccc(/C=C\c2cc(OC)c(OC)c(OC)c2)cc1OP(=O)(O)O [CA4P, Combretastatin]
- Patients who experienced heart attacks while being treated [1]: seven

B1: monoclonal murine antibody AGX-A03 (antibody, V domains shown)
VH: QIQLVQSGPELKKPGETVKISCKASGYSFRDYGMNWVKQAPGRTFKWMGWINTYTGAPVYAADFKGRFAFSLDTSASAAFLQINNLKNEDTATYFCARWVSYGNNRNWFFDFWGAGTTVTVSS
VL: DVLMTQTPLSLPVRLGDQASISCRSSQTLVHSNGNTYLEWYLQKPGQSPKLLIYKVSNRLSGVPDRFSGSGSGTDFTLKISRVETEDLGVYYCFQGSHGPWTFGGGTKLEIK
notes: Murine monoclonal antibody
- binding result [2]: binds

B2: monoclonal murine antibody AGX-A04 (antibody, V domains shown)
VH: EVQLQQSGPELVKPGASVKISCKTSGYTFTDYTMHWVRQSHGKSLEWIGSFNPNNGGLTNYNQKFKGKATLTVDKSSSTVYMDLRSLTSEDSAVYYCTRIRATGFDSWGQGTTLTVSS
VL: DIVMSQSPSSLAVSAGEKVTMSCKSSQSLLNSRTRKNYLAWYQQKPGQSPKLLIYWASTRESGVPDRFTGSGSGTDFTLTISNVQAEDLTVYYCKQSYNPPWTFGGGTKLEIK
notes: Murine monoclonal antibody
- binding result [2]: binds

B3: monoclonal murine antibody AGX-A05 (antibody, V domains shown)
VH: EVQVQQSGPELVKPGASVKMSCKASGYTFTSYVMHWVKQKPGQGLEWIGYINPNNDNINYNEKFKGKASLTSDKSSNTVYMELSSLTSEDSAVYYCAGYGNSGANWGQGTLVTVSA
VL: DIQMTQSPASLSASVGETVTITCRTSKNIFNFLAWYHQKQGRSPRLLVSHTKTLAAGVPSRFSGSGSGTQFSLKINSLQPEDFGIYYCQHHYGTPWTFGGGTKLEIK
notes: Murine monoclonal antibody
- binding result [2]: binds

B4: monoclonal murine antibody AGX-A07 (antibody, V domains shown)
VH: QIQLVQSGPELKKPGETVKISCKASGYTFTNYGVKWVKQAPGKDLKWMGWINTYTGNPIYAADFKGRFAFSLETSASTAFLQINNLKNEDTATYFCVRFQYGDYRYFDVWGAGTTVTVSS
VL: QIILSQSPAILSASPGEKVTMTCRANSGISFINWYQQKPGSSPKPWIYGTANLASGVPARFGGSGSGTSYSLTISRVEAEDAATYYCQQWSSNPLTFGAGTKLELR
notes: The humanized A07 variants (A07-YTEC etc.) used in the ADC killing assays are different molecules and are not entered
- binding result [2]: binds

B5: monoclonal murine antibody AGX-A08 (antibody, V domains shown)
VH: EVQLQQSGPELVKPGASVKLSCKASGYTVTSYVMHWVKQKPGQGLEWIGYINPYSDVTNCNEKFKGKATLTSDKTSSTAYMELSSLTSEDSAVYYCSSYGGGFAYWGQGTLVTVSA
VL: DIQMTQSPASLSASVGEPVTITCRASKNIYTYLAWYHQKQGKSPQFLVYNARTLAGGVPSRLSGSGSVTQFSLNINTLHREDLGTYFCQHHYDTPYTFGGGTNLEIK
notes: Murine monoclonal antibody
- binding result [2]: binds

B6: monoclonal murine antibody AGX-A09 (antibody, V domains shown)
VH: EVQLQQSGPELVKPGASVKMSCKASGYTFSSYVMHWVKQKPGQGLEWIGYINPYSDVTNYNEKFKGKATLTSDRSSNTAYMELSSLTSEDSAVYYCARNYFDWGRGTLVTVSA
VL: DIQMTQSPASLSASVGETVTITCRASKNVYSYLAWFQQKQGKSPQLLVYNAKTLAEGVPSRFSGGGSGTQFSLKINSLQPADFGSYYCQHHYNIPFTFGSGTKLEIK
notes: Murine monoclonal antibody
- binding result [2]: binds
